In paper PMC4499140 (Nucleic Acids Research, 2015):

What was measured:
[1] = biological target: Rv1222 G133C (Fe-BABE);E. coli RNAP-σ70 holoenzyme (Mycobacterium tuberculosis …, UniProt L0T905;P0A7Z4;P0A8V2;P0A8T7;P0A800;P00579 1-154;1-329;1-1342;1-1407;2-91;1-613, C70A;C73A;C109G;G133C|); assay: Fe-BABE footprinting
[2] = biological target: Mycobacterium tuberculosis RNA polymerase core (Mycobacterium tuberculosis, UniProt P9WGZ1;P9WGY9;P9WGY7); assay: fluorescence polarisation

B1: lacCONS15 promoter DNA (dsDNA)
DNA 1: CACCCCAGGCTTGACACTTTATGCTTCGGCTCGTATAATGTGTGGAATTGTGAGGAGAGGCGGATAACAATTTCACACAGG
DNA 2: CCTGTGTGAAATTGTTATCCGCCTCTCCTCACAATTCCACACATTATACGAGCCGAAGCATAAAGTGTCAAGCCTGGGGTG
B1: binds [1].

B2: Rv1222ΔC, TMR labelled (domain or fragment)
chain: MADPGSVGHVFRRAFSWLPAQFASQSDAPVGAPRQFRSTEHLSIEAIAAFVDGELRMNAHLRAAHHLSLCAQCAAEVDDQSRARAALRDSHPIRIPSTLLGLLSEIPRCPPEGPSKGSSGGSSQGPPDGAAAGFGDRFADGDGG
modifications: TMR label
Binder B2 has a Kd [2] of 72 ± 26 nM.
